In the supplement of paper PMC9732359:
± gives the uncertainty stated by the source.

Assay: protein stability index of a GFP-peptide fusion (yeast GPS) (PSI 1-4); higher = more stable; sorted into four equal gates, so the index is relative within each strain
Outline: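 For each peptide, the protein stability index sums the read frequency in every gate after multiplying it by the gate number. Read frequencies came from plasmids that were PCR-amplified from each gate and Illumina-sequenced, with reads assigned to strains by barcodes. The gates were four equal bins of GFP/Cherry fluorescence ratio applied to mid-log yeast in leucine-free medium carrying a pooled library of tiled 17-residue yeast protein peptides fused downstream of GFP on a Cherry-expressing plasmid.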

Sequence | protein stability index (doa10∆) | protein stability index (pdr5∆) | protein stability index (san1∆) | protein stability index (ubr1∆)
EYEELKEKIEKLSKSAT [SMC1] | 3.33 ± 0.12 | 3.09 ± 0.22 | 2.98 ± 0.079 | 3.08 ± 0.073
PSTSITLAERQQLAYDL [RPN9] | 2.91 ± 0.045 | 3.09 ± 0.06 | 2.8 ± 0.06 | 2.94 ± 0.033
QLIKVAVHNGGRKHVAA [RPL9A] | 2.47 ± 0.091 | 2.85 ± 0.087 | 2.66 ± 0.097 | 2.72 ± 0.03
KEVIELPVKHPELFESL [RPT6] | 2.98 ± 0.064 | 3.04 ± 0.036 | 3.05 ± 0.054 | 3.09 ± 0.055
EEGEFIIDLYSLPEGLL [TAF14] | 3.4 ± 0.088 | 3.54 ± 0.085 | 3.57 ± 0.058 | 3.52 ± 0.063
VGRLWDQTFPINCNKET [ECM29] | 3.03 ± 0.14 | 2.87 ± 0.12 | 3.07 ± 0.11 | 3.09 ± 0.1
ERAAQKLRLDQLVIQQG [ISW2] | 2.49 ± 0.11 | 2.52 ± 0.094 | 2.74 ± 0.082 | 2.42 ± 0.069
NVGLPILKSLKNRSNRK [YOR098C/NUP1] | 3.07 ± 0.075 | 3.1 ± 0.078 | 2.88 ± 0.064 | 3.11 ± 0.049
ALEDEERDEILTLTDSQ [BRR2] | 3.09 ± 0.13 | 3.25 ± 0.14 | 3.23 ± 0.088 | 3.12 ± 0.16
LGNVDAFQLADGIHYIL [PRP8] | 2.74 ± 0.15 | 2.65 ± 0.083 | 2.42 ± 0.1 | 1.91 ± 0.042
RNILHNTVPQVTNFNST [SRB5] | 1.95 ± 0.056 | 2.87 ± 0.05 | 1.92 ± 0.052 | 2.44 ± 0.035
KLSQYVQEMALGGPITK [FAS2] | 2.6 ± 0.083 | 2.74 ± 0.055 | 2.96 ± 0.049 | 2.53 ± 0.031
GLGMISASHILIPASDL [PRP8] | 2.06 ± 0.05 | 2.41 ± 0.043 | 1.75 ± 0.06 | 2.19 ± 0.036
QKIRNSEGISEATREVF [ITC1] | 3.11 ± 0.2 | 3.47 ± 0.19 | 2.81 ± 0.15 | –
SSGDFDDNNNNNNNNNN [GRR1] | 3.11 ± 0.06 | 3.18 ± 0.057 | 3.22 ± 0.063 | 3.04 ± 0.046
TGNNLYDRNSNNNHKDK [SWI1] | 3.03 ± 0.049 | 3.12 ± 0.051 | 2.89 ± 0.06 | 3.12 ± 0.039
SRKQKVIKTLTVDVSSP [RPL22B] | 2.52 ± 0.094 | 2.6 ± 0.08 | 2.36 ± 0.12 | 2.79 ± 0.058
IDDENITKLNKEIRAFD [SRB4] | 3.44 ± 0.066 | 3.33 ± 0.063 | 3.27 ± 0.043 | 3.38 ± 0.056
VTKQSELNSSEDILEDM [SMC1] | 3.37 ± 0.065 | 3.25 ± 0.059 | 3.22 ± 0.041 | 3.18 ± 0.049
CESCSTILCTPTGGKAK [RPS27A] | 1.93 ± 0.046 | 2.32 ± 0.046 | 2.1 ± 0.055 | 2.18 ± 0.037
GVKDCQEGLITTTMLQL [SSN2] | 2.46 ± 0.083 | 2.5 ± 0.1 | 2.74 ± 0.079 | 2.6 ± 0.052
VNHLLLFAREIAKSQDK [DPB4] | 2.06 ± 0.15 | 2.85 ± 0.16 | 2.76 ± 0.14 | 2.08 ± 0.068
LISSSQDMQLKIWSVKD [RPN14] | 2.7 ± 0.12 | 2.73 ± 0.22 | 2.56 ± 0.17 | 2.59 ± 0.1
LTGEATANALPLPAVFS [RPL4A] | 2.02 ± 0.052 | 2.36 ± 0.047 | 2.35 ± 0.068 | 2.71 ± 0.038
DANGVSLFELIVPIFQL [YJL039C/NUP192] | 2.37 ± 0.053 | 2.08 ± 0.049 | 2.25 ± 0.062 | 2.14 ± 0.032
AGKFELLDRILPKLKAT [SNF2] | 1.18 ± 0.17 | 2.05 ± 0.14 | 1.77 ± 0.19 | 1.95 ± 0.17

Sequence | protein stability index (doa10∆) | protein stability index (pdr5∆) | protein stability index (san1∆) | protein stability index (ubr1∆)
ERHQKQLNEKLVGRLRK [YCS4] | 3.19 ± 0.12 | 3.18 ± 0.11 | 3.02 ± 0.06 | 3 ± 0.065
VLKEKDVPAYNVTSFMP [SRB8] | 3.11 ± 0.064 | 3.01 ± 0.051 | 3.03 ± 0.051 | 3 ± 0.037
PQQAQQQPNPLHGLTPT [GAL11] | 3 ± 0.068 | 2.95 ± 0.042 | 2.83 ± 0.051 | 3.05 ± 0.035
ALLTKRLYPHWDHPVIA [CSN12] | 2.19 ± 0.13 | 1.91 ± 0.1 | 1.7 ± 0.17 | 1.89 ± 0.068
MTMLTPNYLHLVSSYLN [YML103C/NUP188] | 1.82 ± 0.039 | 1.66 ± 0.035 | 1.69 ± 0.051 | 1.4 ± 0.032
TILCTPTGGKAKLSEGT [RPS27A] | 2.83 ± 0.097 | 2.85 ± 0.1 | 3.12 ± 0.072 | 2.74 ± 0.056
KWDITTRNSNNLAIVEL [BRR2] | 3.16 ± 0.071 | 2.83 ± 0.059 | 3.21 ± 0.051 | 3.54 ± 0.064
LFSKNRNEVLESMDFLV [YCS4] | 2.08 ± 0.05 | 2.19 ± 0.066 | 2.43 ± 0.076 | 2.62 ± 0.052
IQKESTLHLVLRLRGGG [RPS31] | 2.64 ± 0.12 | 2.31 ± 0.067 | 1.75 ± 0.096 | 2.45 ± 0.066
LVEEKTPGLTFNAIDLA [RPC82] | 3.23 ± 0.12 | 3.29 ± 0.11 | 3.25 ± 0.057 | 3.27 ± 0.086
SYLEERERQVNEKLADL [RPC53] | 3.2 ± 0.14 | 3.42 ± 0.16 | 3.12 ± 0.17 | 3.19 ± 0.23
KPIYKDTRFGGRMDMTR [SSN2] | 3.1 ± 0.17 | 3.36 ± 0.14 | 3.33 ± 0.068 | 3.4 ± 0.14
PNFEASFVHGVVGQLFQ [SMC2] | 1.61 ± 0.098 | 2.56 ± 0.11 | 2.58 ± 0.1 | 3.18 ± 0.12
RMLEEAIDHLKAELEKQ [YIL149C/MLP2] | 3.25 ± 0.056 | 3.21 ± 0.063 | 3.32 ± 0.073 | 3.12 ± 0.053
NPIIENNVDNKYKSGGK [SSN2] | 2.92 ± 0.052 | 3.01 ± 0.041 | 3.04 ± 0.043 | 3.07 ± 0.041
DVDMEDRNLTEFDSTDT [RRI1] | 2.93 ± 0.12 | 3.09 ± 0.12 | 2.71 ± 0.13 | 3.01 ± 0.055
FDNYQRNNFLAENSHTQ [PUP1] | 3.3 ± 0.081 | 3.26 ± 0.075 | 3.17 ± 0.058 | 3.19 ± 0.044
KGYVFKISGGNDKQGFP [RPS6A] | 2.62 ± 0.068 | 2.89 ± 0.071 | 2.99 ± 0.052 | 3 ± 0.054
KNYTTETDNEMNGNGKP [SIR3] | 3.24 ± 0.078 | 3.37 ± 0.054 | 3.48 ± 0.043 | 3.22 ± 0.055
PENITKREASRGFFDIL [MCD1] | 3.1 ± 0.08 | 3.01 ± 0.082 | 3.13 ± 0.062 | 3.21 ± 0.058
SFLDRKRAKEFITTLLK [SIN4] | 2.35 ± 0.048 | 2.21 ± 0.06 | 2.21 ± 0.061 | 2.08 ± 0.042
GKRQVLIRPSSKVIIKF [RPS22A] | 3.04 ± 0.068 | 2.4 ± 0.046 | 2.78 ± 0.057 | 2.95 ± 0.042
DDPFMTKSGATTSEKQE [GAL11] | 2.97 ± 0.18 | 3.26 ± 0.13 | 2.82 ± 0.23 | –
TNILTKVDINADSAVNR [PRP28] | 3.37 ± 0.062 | 3.4 ± 0.074 | 3.3 ± 0.055 | 3.31 ± 0.059
HLEALQPLFSTVPEYLK [PGD1] | 1.51 ± 0.039 | 1.69 ± 0.045 | 1.66 ± 0.093 | 2.12 ± 0.066
KEELLRDGVLTVTLNKN [RRP45] | 1.78 ± 0.054 | 2.11 ± 0.06 | 2.21 ± 0.084 | 2.06 ± 0.048
